Data published in paper PMC8126837.

Biological target: human angiotensin-converting enzyme 2 (ACE2) (human) (UniProt Q9BYF1)
Test: FRET or BRET

human angiotensin-converting enzyme 2 (ACE2) (human), sequence (Q9BYF1 18-740): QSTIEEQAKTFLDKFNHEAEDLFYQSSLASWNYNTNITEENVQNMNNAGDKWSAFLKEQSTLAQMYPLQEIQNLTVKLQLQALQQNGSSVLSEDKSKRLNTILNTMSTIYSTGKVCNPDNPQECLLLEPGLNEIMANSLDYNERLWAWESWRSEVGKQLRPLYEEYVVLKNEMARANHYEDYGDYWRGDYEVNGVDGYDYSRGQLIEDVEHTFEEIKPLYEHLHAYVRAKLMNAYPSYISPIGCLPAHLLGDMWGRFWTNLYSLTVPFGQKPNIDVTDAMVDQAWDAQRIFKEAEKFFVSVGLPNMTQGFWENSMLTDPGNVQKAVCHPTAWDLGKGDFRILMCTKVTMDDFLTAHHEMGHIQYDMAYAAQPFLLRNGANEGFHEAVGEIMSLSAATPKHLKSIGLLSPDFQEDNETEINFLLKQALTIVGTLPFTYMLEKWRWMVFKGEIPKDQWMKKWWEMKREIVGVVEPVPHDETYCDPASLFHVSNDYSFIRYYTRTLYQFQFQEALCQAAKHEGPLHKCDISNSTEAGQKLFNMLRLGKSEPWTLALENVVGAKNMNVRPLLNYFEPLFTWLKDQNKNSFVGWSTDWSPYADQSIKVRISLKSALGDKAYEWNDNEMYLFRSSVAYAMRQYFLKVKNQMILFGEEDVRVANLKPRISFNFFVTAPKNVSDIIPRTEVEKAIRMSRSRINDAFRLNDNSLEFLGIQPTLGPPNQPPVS

Substance: SARS-CoV receptor-binding domain (RBD) (from UniProt P59594) (domain or fragment)
- reduction in complex formation (FRET of SARS-CoV-2 RBD with ACE2): 70%
